Patent publication US20240410900A1

How the values were obtained:
[1] = biological target: non-targeted IgG-IL2 (interleukin-2 fused to the C-terminus of a heavy chain of a germline antibody, which is not binding to a target); test: bridging ELISA, IgG-IL2-Bi and -Dig, binder 3.9 ng/mL assay / 78 ng/mL matrix
[2] = biological target: non-targeted IgG-IL2 (interleukin-2 fused to the C-terminus of a heavy chain of a germline antibody, which is not binding to a target); test: bridging ELISA, IgG-IL2-Bi and -Dig, binder 0.1 ng/mL assay / 2.4 ng/mL matrix
[3] = biological target: non-targeted IgG-IL2 (interleukin-2 fused to the C-terminus of a heavy chain of a germline antibody, which is not binding to a target); test: bridging ELISA, IgG-IL2-Bi and -Dig, binder 0.2 ng/mL assay / 4.9 ng/mL matrix
[4] = biological target: non-targeted IgG-IL2 (interleukin-2 fused to the C-terminus of a heavy chain of a germline antibody, which is not binding to a target); test: bridging ELISA, IgG-IL2-Bi and -Dig, binder 7.8 ng/mL assay / 156 ng/mL matrix
[5] = biological target: non-targeted IgG-IL2 (interleukin-2 fused to the C-terminus of a heavy chain of a germline antibody, which is not binding to a target); test: bridging ELISA, IgG-IL2-Bi and -Dig, binder 0.06 ng/mL assay / 1.2 ng/mL matrix
[6] = biological target: non-targeted IgG-IL2 (interleukin-2 fused to the C-terminus of a heavy chain of a germline antibody, which is not binding to a target); test: bridging ELISA, IgG-IL2-Bi and -Dig, binder 500 ng/mL assay / 10000 ng/mL matrix
[7] = biological target: drug antibody (capture and tracer of the bridging immunoassay of FIGS. 2, 7 and 8; not named); test: bridging immunoassay, drug antibody as capture and tracer, binder at 1000 ng/ml
[8] = biological target: TCB (T-cell bispecific format) drug antibody; test: bridging ELISA, drug-Bi and drug-Dig, human pooled serum, binder 1.0 ng/mL assay / 20 ng/mL matrix
[9] = biological target: non-targeted IgG-IL2 (interleukin-2 fused to the C-terminus of a heavy chain of a germline antibody, which is not binding to a target); test: as above
[10] = biological target: targeted IgG-IL2 (interleukin-2 fused to the C-terminus of a heavy chain of an antibody specifically binding to a therapeutic target); test: as above
[11] = biological target: TCB (T-cell bispecific format) drug antibody; test: bridging ELISA, drug-Bi and drug-Dig, human pooled serum, binder 31 ng/mL assay / 625 ng/mL matrix
[12] = biological target: non-targeted IgG-IL2 (interleukin-2 fused to the C-terminus of a heavy chain of a germline antibody, which is not binding to a target); test: as above
[13] = biological target: targeted IgG-IL2 (interleukin-2 fused to the C-terminus of a heavy chain of an antibody specifically binding to a therapeutic target); test: as above
[14] = biological target: TCB (T-cell bispecific format) drug antibody; test: bridging ELISA, drug-Bi and drug-Dig, human pooled serum, binder 0.03 ng/mL assay / 0.6 ng/mL matrix
[15] = biological target: non-targeted IgG-IL2 (interleukin-2 fused to the C-terminus of a heavy chain of a germline antibody, which is not binding to a target); test: as above
[16] = biological target: targeted IgG-IL2 (interleukin-2 fused to the C-terminus of a heavy chain of an antibody specifically binding to a therapeutic target); test: as above
[17] = biological target: TCB (T-cell bispecific format) drug antibody; test: bridging ELISA, drug-Bi and drug-Dig, human pooled serum, binder 0.06 ng/mL assay / 1.2 ng/mL matrix
[18] = biological target: non-targeted IgG-IL2 (interleukin-2 fused to the C-terminus of a heavy chain of a germline antibody, which is not binding to a target); test: as above
[19] = biological target: targeted IgG-IL2 (interleukin-2 fused to the C-terminus of a heavy chain of an antibody specifically binding to a therapeutic target); test: as above
[20] = biological target: TCB (T-cell bispecific format) drug antibody; test: bridging ELISA, drug-Bi and drug-Dig, human pooled serum, binder 0.12 ng/mL assay / 2.4 ng/mL matrix
[21] = biological target: non-targeted IgG-IL2 (interleukin-2 fused to the C-terminus of a heavy chain of a germline antibody, which is not binding to a target); test: as above
[22] = biological target: targeted IgG-IL2 (interleukin-2 fused to the C-terminus of a heavy chain of an antibody specifically binding to a therapeutic target); test: as above
[23] = biological target: TCB (T-cell bispecific format) drug antibody; test: bridging ELISA, drug-Bi and drug-Dig, human pooled serum, binder 250 ng/mL assay / 5000 ng/mL matrix
[24] = biological target: non-targeted IgG-IL2 (interleukin-2 fused to the C-terminus of a heavy chain of a germline antibody, which is not binding to a target); test: as above
[25] = biological target: targeted IgG-IL2 (interleukin-2 fused to the C-terminus of a heavy chain of an antibody specifically binding to a therapeutic target); test: as above
[26] = biological target: targeted IgG-IL2 (interleukin-2 fused to the C-terminus of a heavy chain of an antibody specifically binding to a therapeutic target); test: bridging ELISA, drug-Bi and drug-Dig, human pooled serum, binder 500 ng/mL assay / 10000 ng/mL matrix

- signal [AU] [1]: 0.286 AU
- signal [AU] [2]: 0.058 AU
- signal [AU] [3]: 0.0645 AU
- signal [AU] [4]: 0.539 AU
- signal [AU] [5]: 0.056 AU
- signal [AU] [6]: 3.09 AU
- signal-to-noise ratio (S/N) [7]: 83.6
- signal [AU] [8]: 0.12 AU
- signal [AU] [9]: 0.0485 AU
- signal [AU] [10]: 0.0975 AU
- signal [AU] [11]: 2.09 AU
- signal [AU] [12]: 0.408 AU
- signal [AU] [13]: 1.65 AU
- signal [AU] [14]: 0.0455 AU
- signal [AU] [15]: 0.0425 AU
- signal [AU] [16]: 0.04 AU
- signal [AU] [17]: 0.049 AU
- signal [AU] [18]: 0.042 AU
- signal [AU] [19]: 0.042 AU
- signal [AU] [20]: 0.0555 AU
- signal [AU] [21]: 0.0395 AU
- signal [AU] [22]: 0.044 AU
- signal [AU] [23]: 2.99 AU
- signal [AU] [24]: 2.17 AU
- signal [AU] [25]: 2.99 AU
- signal [AU] [26]: 3.01 AU
B1: multivalent anti-PG antibody derived from clone 1.7.24 (mixed Pool 2, 3, 4) (antibody, V domains shown)
VH: EVKLLESGGGLVQPGGSLKLSCAASGFDFSRYWMNWVRQAPGKGLEWIGEITPDSSTINYTPSLKDKFIISRDNAKNTLYLQMIKVRSEDTALYYCVRPYDYGAWFASWGQGTLVTVSA
VL: QAVVTQESALTTSPGETVTLTCRSSTGAVTTSNYANWVQEKPDHLFTGLIGGTNKRAPGVPARFSGSLIGDKAALTITGAQTEDEAIYFCALWYSNHWVFGGGTKLTVL
modifications: lysine amines derivatised with SATP or MHS and cross-linked (sites not given)
